According to patent EP1865065A1:

How the values were obtained:
Assay in all cases: cell-based or functional assay
[1] = molecular target: murine B7-1 (CD80) (murine) (UniProt Q00609)
[2] = molecular target: murine Intercellular adhesion molecule-1 (ICAM-1, CD54) (murine) (UniProt P13597)
[3] = molecular target: murine LFA-3 (CD48) (murine) (UniProt P18181)
Chain of UniProt P18181 (P18181 23-217): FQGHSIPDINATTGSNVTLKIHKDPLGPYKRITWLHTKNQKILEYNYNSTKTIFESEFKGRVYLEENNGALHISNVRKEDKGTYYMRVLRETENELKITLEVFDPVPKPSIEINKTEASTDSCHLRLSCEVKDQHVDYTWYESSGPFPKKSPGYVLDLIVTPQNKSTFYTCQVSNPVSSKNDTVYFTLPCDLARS

Chain of UniProt P13597 (P13597 28-537): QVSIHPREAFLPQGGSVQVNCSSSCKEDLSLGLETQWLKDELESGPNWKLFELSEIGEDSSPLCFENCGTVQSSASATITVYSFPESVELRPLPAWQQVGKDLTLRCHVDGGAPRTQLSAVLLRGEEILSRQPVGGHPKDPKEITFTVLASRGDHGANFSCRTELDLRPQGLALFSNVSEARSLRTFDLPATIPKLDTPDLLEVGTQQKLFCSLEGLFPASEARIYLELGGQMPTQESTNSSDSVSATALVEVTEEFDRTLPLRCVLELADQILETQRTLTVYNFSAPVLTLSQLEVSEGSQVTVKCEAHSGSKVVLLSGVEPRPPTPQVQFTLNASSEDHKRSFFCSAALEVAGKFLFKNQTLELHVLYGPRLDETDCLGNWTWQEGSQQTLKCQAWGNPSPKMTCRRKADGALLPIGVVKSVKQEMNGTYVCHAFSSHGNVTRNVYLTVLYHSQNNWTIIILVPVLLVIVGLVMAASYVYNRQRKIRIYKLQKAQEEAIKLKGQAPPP
Chain of UniProt Q00609 (Q00609 38-306): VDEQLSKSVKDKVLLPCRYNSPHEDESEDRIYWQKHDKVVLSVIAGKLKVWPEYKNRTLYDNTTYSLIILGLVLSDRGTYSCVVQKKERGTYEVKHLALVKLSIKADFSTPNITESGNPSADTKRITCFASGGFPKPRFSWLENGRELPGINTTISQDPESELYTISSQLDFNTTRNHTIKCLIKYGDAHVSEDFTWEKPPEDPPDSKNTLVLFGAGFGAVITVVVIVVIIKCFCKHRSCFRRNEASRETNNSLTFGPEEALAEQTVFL

Work on “Hamster anti-murine CD80 (B7-1; clone 16-10A1) (antibody)” yielded an inhibition of the increased T-cell proliferation (3H-Thymidine) induced by MC38/B7-1 stimulator cells with Con A [1] of 83%.
In the case of “Hamster anti-murine CD54 (ICAM-1; clone 3E2) (antibody)”, the reduction of the increased T-cell proliferation (3H-Thymidine) induced by MC38/ICAM-1 stimulator cells with Con A [2] is reported as 88%.
In the case of “Hamster anti-murine CD48 (BCM-1; clone HM48-1) (antibody)”, the reduction of the increased T-cell proliferation (3H-Thymidine) induced by MC38/LFA-3 stimulator cells with Con A [3] is reported as 98%.
